Consider 4 substances from publication PMC9712102.

Assay [1] deals with Gp57, purified (phage SECΦ27). The assay is described as follows: SEC-MALS; co-purified CapRel^SJ46–Gp57 complex at 5 mg ml^−1; 50 mM HEPES pH 7.5, 500 mM KCl, 500 mM NaCl, 10 mM MgCl2, 1 mM TCEP, 0.002% mellitic acid. On the technique in general: In gel filtration, larger molecules generally elute earlier.
The target in assay [2] is Gp57 (L114P I115F), purified (phage SECΦ27). The assay is described as follows: ITC; CapRel^SJ46 (or variant) at 150 μM in the syringe titrated into Gp57 (or variant) at 10 μM in the cell; 25 °C; 50 mM HEPES pH 7.5, 500 mM KCl, 500 mM NaCl, 150 mM imidazole, 10 mM MgCl2, 1 mM TCEP, 0.002% mellitic acid. Background: Isothermal titration calorimetry measures the heat released or taken up as one component is titrated into another.

Assay [3] has as its target Gp57, purified (phage SECΦ27). The description is as above.
In a further assay the target is CapRel^SJ46–Flag. The assay can be described thus: immunoprecipitation followed by mass spectrometry.
Assay [4] deals with CapRel^SJ46, purified full-length. The assay is described as follows: ITC. As to conditions: CapRelSJ46 titrated into Gp57(L114P I115F).

In assay [1], “CapRel^SJ46(Y155A), co-purified with Gp57 (natural protein)” yielded a stoichiometry N of 1.
Take “CapRel^SJ46, purified full-length (natural protein)”: the fold decrease in affinity against wild-type Gp57 in assay [2] is more than 60 fold. In addition, the stoichiometry N in assay [3] stood at 1.
Take “Gp57, major capsid protein of SECΦ27, made by wild-type phage during infection L114P”: the response (SC(Gp57)/SC(CapRelSJ46)) with CapRel^SJ46–Flag (40 min after infection, bar = mean of 2 biological replicates, parent: est. 0.33, read off a plot) worked out at 0.07. Also, the response (spectral counts (SC)) in the assay with CapRel^SJ46–Flag (replicate1, 15 min after infection, CapRelSJ46 SC 276 (L114P mutant), 286 (WT), parent: 12) worked out at 0; with CapRel^SJ46–Flag (replicate1, 40 min after infection, CapRelSJ46 SC 251 (L114P mutant), 217 (WT), parent: 64), 25; in the assay with CapRel^SJ46–Flag (replicate2, 15 min after infection, CapRelSJ46 SC 145 (L114P mutant), 161 (WT), parent: 0) it was 0; with CapRel^SJ46–Flag (replicate2, 40 min after infection, CapRelSJ46 SC 156 (L114P mutant), 138 (WT), parent: 52), 6.
For the substance Gp57, purified L114P; I115F, the dissociation constant (Kd) in assay [4] turned out to be 23.7 µM.

What is called stoichiometry N is the number of molecules, sites or subunits per partner or assembly. For orientation: Kd means the constant that tells how readily two partners part at equilibrium. Lower therefore signals higher affinity.
